One data set concerns NC(=O)c1cnccn1. In words: steady-state kinetics (Km), GDH-coupled spectrophotometric assay. Format: biochemical, Oceanobacillus iheyensis.
In a further data set the test system is NC(=O)c1cccnc1. The description is as above. Format: biochemical, Oceanobacillus iheyensis. To be noted: Zn2+ active site.
For a further data set, the target named is T1, nicotinamidase (OiNIC) (Oceanobacillus iheyensis, UniProt Q8ESQ6).
T1 construct: gene OB0565
T1 sequence (Q8ESQ6 1-183): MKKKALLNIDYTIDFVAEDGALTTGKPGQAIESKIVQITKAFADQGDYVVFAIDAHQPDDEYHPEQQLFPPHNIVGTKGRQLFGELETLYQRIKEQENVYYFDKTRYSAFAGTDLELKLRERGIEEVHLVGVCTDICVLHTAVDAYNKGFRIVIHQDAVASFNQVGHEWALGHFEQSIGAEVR

Substrate in data set [1]: NC(=O)c1cccnc1
Kind of data set: steady-state kinetics (Km), HPLC and GDH-coupled assay. Format: biochemical, Oceanobacillus iheyensis. As to conditions: Zn2+ active site.

Substrate in data set [2]: NC(=O)c1cnccn1
In words: steady-state kinetics (Km), GDH-coupled spectrophotometric assay. To be noted: Zn2+ active site. Format: biochemical, Oceanobacillus iheyensis.

Substrate in data set [3]: Cc1cncc(C(N)=O)c1
The data set is described as above. Format: biochemical, Oceanobacillus iheyensis. As to conditions: Zn2+.

Substrate in data set [4]: CCOC(=O)c1cccnc1
Kind of data set: steady-state kinetics (Km), HPLC. Format: biochemical, Oceanobacillus iheyensis. As to conditions: Zn2+.

Substrate in data set [5]: COC(=O)c1cccnc1
In words: steady-state kinetics (Km), HPLC. Format: biochemical, Oceanobacillus iheyensis. To be noted: Zn2+.

By Km is commonly meant the substrate concentration at which the rate is half of its maximum. As usually defined, the kcat is the number of substrate molecules converted per active site and unit of time at saturation. One may read the kcat/Km as the turnover number divided by the Michaelis constant. By Ki is commonly meant the dissociation constant of the complex between target and ligand, obtained from inhibition or displacement. A higher Ki goes with lower affinity.

Take “nicotinamidase (OiNIC) (Oceanobacillus iheyensis HTE831; C133A)”: in the data set with NC(=O)c1cnccn1 (Zn2+ active site), the Km amounted to 360 ± 20 µM, the catalytic constant (kcat) turned out to be 3.31 ± 0.1 s⁻¹ and the catalytic efficiency (kcat/Km) came out at 9190 M⁻¹ s⁻¹.
On to “nicotinamidase (OiNIC) (Oceanobacillus iheyensis HTE831; F69W)”, for which, in the data set with NC(=O)c1cnccn1 (Zn2+ active site cavity), the Km stood at 500 ± 20 µM, the kcat amounted to 3.94 ± 0.1 s⁻¹ and the kcat/Km was found to be 7900 M⁻¹ s⁻¹.
For the molecule “nicotinamidase (OiNIC) (Oceanobacillus iheyensis HTE831; E65H)”, in the data set with NC(=O)c1cccnc1, the Km is 130 ± 10 µM, the turnover number (kcat) worked out at 5.63 ± 0.2 s⁻¹ and the catalytic efficiency (kcat/Km) came to 42600 M⁻¹ s⁻¹.
On to `O=Cc1cccnc1` [nicotinaldehyde], for which the inhibitory constant (Ki) on nicotinamidase (OiNIC) amounted to 3.4 µM.

B1: nicotinamidase (OiNIC) (Oceanobacillus iheyensis HTE831) (protein)
chain: MKKKALLNIDYTIDFVAEDGALTTGKPGQAIESKIVQITKAFADQGDYVVFAIDAHQPDDEYHPEQQLFPPHNIVGTKGRQLFGELETLYQRIKEQENVYYFDKTRYSAFAGTDLELKLRERGIEEVHLVGVCTDICVLHTAVDAYNKGFRIVIHQDAVASFNQVGHEWALGHFEQSIGAEVR
With B1, the Km in data set [1] was found to be 260 ± 20 µM; in data set [2], 810 ± 10 µM; in data set [3], 680 ± 20 µM; in data set [4], 1020 ± 10 µM; in data set [5] it was 1030 ± 10 µM. Further, the kcat in data set [1] was found to be 11.65 ± 0.1 s⁻¹; in data set [2], 2.6 ± 0.1 s⁻¹; in data set [3], 5.1 ± 0.02 s⁻¹; in data set [4], 0.1 ± 0.01 s⁻¹; in data set [5], 0.32 ± 0.02 s⁻¹. In addition, the kcat/Km in data set [1] was 43500 M⁻¹ s⁻¹; in data set [2], 3200 M⁻¹ s⁻¹; in data set [3] it was 7500 M⁻¹ s⁻¹; in data set [4], 100 M⁻¹ s⁻¹; in data set [5], 310 M⁻¹ s⁻¹.

These data come from publication PMC3581539, “Biochemical and Mutational Analysis of a Novel Nicotinamidase from Oceanobacillus iheyensis HTE831” (PLoS ONE, 2013).
